The test system of data set [1] is cellulose synthesis. In words: Cellulose synthesis activity of inverted membrane vesicles / PLs containing BcsA, BcsB or truncated BcsB. Type of data set: biochemical, Rhodobacter sphaeroides. As to conditions: for catalytic activity (HMW polymer formation): IMVs, 60 min 37° C., with c-di-GMP. As for the experimental part:
FIG. 1A-1C (also referred to as Example 1, FIG. 1): BcsA and BcsB are necessary for cellulose synthesis. (FIG. 1A) Inverted membrane vesicles containing either BcsA, BcsB, or both subunits were incubated for 60 min at 37° C. in the presence and absence of c-di-GMP and 0.25 μCi UDP-[^3H]-Glc. The synthesized polymer was purified by descending paper chromatography and quantified by scintillation counting. The amount of product obtained is shown relative to the product formed from IMVs containing BcsA and BcsB. Control reactions were performed with IMVs derived from cells containing an empty pET28a vector or in the absence of c-di-GMP or the presence of 20 mM EDTA. Results are shown in light and dark gray for components from Ec and Rs, respectively. (FIG. 1B) immuno-blotting of IMVs containing BcsA and BcsB. BcsA and BcsB were expressed with C-terminal poly-histidine- and FLAG-tags, respectively, and the equivalent amounts of IMVs used for activity assays were analyzed under non-reducing conditions by western blotting. […]
FIG. 6A-6C (also referred to as Example 1, FIG. 6): The membrane-associated domain of BesB is required for cellulose synthesis. […] IMVs containing wild-type BesA and the indicated BesB constructs were tested for cellulose synthase activity by quantifying the accumulation of radioactively labeled cellulose. […] (FIG. 6C) Western analysis of the analyzed IMVs and PLs. […] The equivalent amounts of IMVs used for activity assays were used to quantify the BcsA and BcsB expression levels. Vesicles containing WT and the BcsA-B-S684-r complex were analyzed on separate gels. […]
Gram-negative bacteria transport cellulose across the inner and outer bacterial membranes. […] To identify the complex components required for cellulose synthesis and translocation across the inner bacterial membrane, we expressed BcsA and BcsB from Escherichia coli (Ec) K12 and Rhodobacter sphaeroides (Rs) in E. coli C43 (28), prepared inverted membrane vesicles (IMVs), and analyzed them for cellulose synthesis activity. […]

Data set [2] relates to cellulose synthesis. Type of data set: biochemical, Rhodobacter sphaeroides.

This note sets out measurements from US9890407B2, “Method for synthesizing cellulose in vitro” (University of Virginia Patent Foundation, priority 2013, dated 2018).

Where a chain is given by its changes, count along the chain named. In names and notes the source's numbering stands.

Consider “BcsA-B-S684: BcsA complexed with BcsB fragment N-terminally truncated to start at Ser684”, for which the “catalytic activity after reconstitution into PLs” value in the data set with cellulose synthesis [1] (purified truncated complex in PLs) is recorded as “catalytically active”.

B1: BcsB: bacterial cellulose synthase B, periplasmic membrane-anchored subunit (SEQ ID NO:3) (protein)
chain: MDMRLLPFLFLGTLASMAAAQDAPMIVIEGLTSEEPQASPDAVAEAVPAAEVAPWIIPLRPLAETAQVGPLFRLQGQQARAAFRLFLPTEAVGGTLTLAQRSSIDILPESSQIIVRMNDQEIGRFTPRQFGALGAVTMPLGEAVRAGDNLVTIEAQHRHRIYCGADAEFDLWTEVDLSQSGVALPAAAIGTEPTSFIAALTAQAESGRPVEIRTPTPPDEATLRTLAQALGRPLPDEALPLALSKPWSAETGPTYARITLLPSDADRVSIRRGGDGAVVLVLEHPPEGSPNASLVADLLGATPTLPPPTLPQIPPGRVVTLADMGVDTILTDNRYFNRDIDFQLPDDWLLLASQKAQIGIDYGFAGGLPEGALLLVKVNGTTVRMLPLDRDAAPVKPRLDIRFPARLLHPGPNRLSFESVIPGNPPDQPCPASAGDLMQVLSSTDLEVPPSPRMQMADMARDLAQVTPASVHPATPDGLARTLPFMAAFREVPDAAPVDLTVAGLHDIATVPLNEEGLTPRLLALTLLPSTVSRLVERPATPAGPPANALAPLGAAPGEGVMPPLVESNWSDRAQTFVQATLQPVIQTVRRMLRPGDGNLAEWLATRKGTAMLLAPEPGKLWVILGPEAEPARVAEALAMAPRSPGGPRGQVAVLGSDGRWSSWSKPGLLPELREPVSLDNVRSVVGNVASARPPLLLGGMLGLAWISAAIAVGFVLRTRRKGLK
modifications: Rhodobacter sphaeroides
For B1, the “catalytic activity (HMW polymer formation)” value with cellulose synthesis [1] is “catalytically inactive”.

B2: BcsA: bacterial cellulose synthase A, catalytic subunit (SEQ ID NO:1) (protein)
chain: MTVRAKARSPLRVVPVLLFLLWVALLVPFGLLAAAPVAPSAQGLIALSAVVLVALLKPFADKMVPRFLLLSAASMLVMRYWFWRLFETLPPPALDASFLFALLLFAVETFSISIFFLNGFLSADPTDRPFPRPLQPEELPTVDILVPSYNEPADMLSVTLAAAKNMIYPARLRTVVLCDDGGTDQRCMSPDPELAQKAQERRRELQQLCRELGVVYSTRERNEHAKAGNMSAALERLKGELVVVFDADHVPSRDFLARTVGYFVEDPDLFLVQTPHFFINPDPIQRNLALGDRCPPENEMFYGKIHRGLDRWGGAFFCGSAAVLRRRALDEAGGFAGETITEDAETALEIHSRGWKSLYIDRAMIAGLQPETFASFIQQRGRWATGMMQMLLLKNPLFRRGLGIAQRLCYLNSMSFWFFPLVRMMFLVAPLIYLFFGIEIFVATFEEVLAYMPGYLAVSFLVQNALFARQRWPLVSEVYEVAQAPYLARAIVTTLLRPRSARFAVTAKDETLSENYISPIYRPLLFTFLLCLSGVLATLVRWVAFPGDRSVLLVVGGWAVLNVLLVGFALRAVAEKQQRRAAPRVQMEVPAEAQIPAFGNRSLTATVLDASTSGVRLLVRLPGVGDPHPALEAGGLIQFQPKFPDAPQLERMVRGRIRSARREGGTVMVGVIFEAGQPIAVRETVAYLIFGESAHWRTMREATMRPIGLLHGMARILWMAAASLPKTARDFMDEPARRRRRHEEPKEKQAHLLAFGTDFSTEPDWAGELLDPTAQVSARPNTVAWGSN
modifications: Rhodobacter sphaeroides
For the molecule B2, in the data set with cellulose synthesis [1], the “catalytic activity (HMW polymer formation)” value is “catalytically inactive”.

B3: E371A (protein)
chain: MGTVRAKARSPLRVVPVLLFLLWVALLVPFGLLAAAPVAPSAQGLIALSAVVLVALLKPFADKMVPRFLLLSAASMLVMRYWFWRLFETLPPPALDASFLFALLLFAVETFSISIFFLNGFLSADPTDRPFPRPLQPEELPTVDILVPSYNEPADMLSVTLAAAKNMIYPARLRTVVLCDDGGTDQRCMSPDPELAQKAQERRRELQQLCRELGVVYSTRERNEHAKAGNMSAALERLKGELVVVFDADHVPSRDFLARTVGYFVEDPDLFLVQTPHFFINPDPIQRNLALGDRCPPENEMFYGKIHRGLDRWGGAFFCGSAAVLRRRALDEAGGFAGETITEDAETALEIHSRGWKSLYIDRAMIAGLQPATFASFIQQRGRWATGMMQMLLLKNPLFRRGLGIAQRLCYLNSMSFWFFPLVRMMFLVAPLIYLFFGIEIFVATFEEVLAYMPGYLAVSFLVQNALFARQRWPLVSEVYEVAQAPYLARAIVTTLLRPRSARFAVTAKDETLSENYISPIYRPLLFTFLLCLSGVLATLVRWVAFPGDRSVLLVVGGWAVLNVLLVGFALRAVAEKQQRRAAPRVQMEVPAEAQIPAFGNRSLTATVLDASTSGVRLLVRLPGVGDPHPALEAGGLIQFQPKFPDAPQLERMVRGRIRSARREGGTVMVGVIFEAGQPIAVRETVAYLIFGESAHWRTMREATMRPIGLLHGMARILWMAAASLPKTARDFMDEPARRRRRHEEPKEKQAHLLAFGTDFSTEPDWAGELLDPTAQVSARPNTVAWGSNHHHHHHKLHHHHHH
For the molecule B3, in the data set with cellulose synthesis [2] (no c-di-GMP, IMVs and PLs), the “increase of catalytic activity in the absence of c-di-GMP compared to wild type enzyme” value is “approximately 6 fold”.

B4: R580A (protein)
chain: B3 chain with A372E, R581A
Consider B4, for which the “dependence of catalytic activity on c-di-GMP” value in the data set with cellulose synthesis [2] (formation of cellulose or UDP, with and without 30 μM c-di-GMP) is on record as “constitutively active”.
